Test results from the RNAGym collection of RNA variant scans (doi:10.7554/elife.90254).

B1: LINE1-full (parent)
chain: UACGUAGGUGGUUUUCCCCUGAUAGUGCUAAGGGGGCCUGGAAGUUUGGACUGGGCAGAGCUCAACACAGCGUGGCAAAGUGGCUGUGGCUAGACUGCCUCUCUGGAUUCCUCGUCACUCAGCAGGGCAUCUCUGAGAGAAAUGCC

Variants of: B1
Assay: self-cleavage, relative activity (ratio to wild type); higher = more cleavage; in vitro, sequencing; the parent is a self-cleaving ribozyme
Work on U13A G82U yielded a self-cleavage of 0.65.
With U12C A65G the self-cleavage was 0.15.
With U13A G40A the self-cleavage was 1.19.
For U13A A24G, the self-cleavage was 0.53.
For U13A G126U, the self-cleavage was 1.86.
U13A A79U showed a self-cleavage of 0.96.
For U12G C61A, the self-cleavage was 0.14.
Work on U13C A22U yielded a self-cleavage of 1.22.
Variant U13A A30U has a self-cleavage of 0.7.
Variant U12C A59U has a self-cleavage of 0.13.
Variant U12G G55A has a self-cleavage of 0.15.
U12C A43C showed a self-cleavage of 1.45.
For U12C A43G, the self-cleavage was 1.33.
Work on U12C C101A yielded a self-cleavage of 1.72.
U12C C101U showed a self-cleavage of 1.02.
U12C A92G showed a self-cleavage of 0.09.
In the case of U12C A92U, the self-cleavage is reported as 0.56.
Variant U12C A92C has a self-cleavage of 0.81.
U12G A92G gave a self-cleavage of 0.21.
Work on U12G A92U yielded a self-cleavage of 0.62.
In the case of U13A U81C, the self-cleavage is reported as 0.85.
U13A U81A gave a self-cleavage of 1.81.
Work on U13A C63U yielded a self-cleavage of 0.35.
Variant U12C U46C has a self-cleavage of 1.62.
Variant U13A U47G has a self-cleavage of 0.38.
Variant U13A U47A has a self-cleavage of 1.01.
With U12G U29C the self-cleavage was 1.02.
U13A A142G showed a self-cleavage of 1.2.
U13A G48A showed a self-cleavage of 1.01.
For U12C A42U, the self-cleavage was 1.
Variant U12C A94U has a self-cleavage of 0.38.
Work on U13C A69U yielded a self-cleavage of 0.1.
Work on U12G U39C yielded a self-cleavage of 1.61.
Variant U13A A78U has a self-cleavage of 1.52.
U13C A121U showed a self-cleavage of 1.26.
U13C A121C showed a self-cleavage of 1.34.
In the case of U13C A121G, the self-cleavage is reported as 1.52.
Work on U12C G72U yielded a self-cleavage of 1.13.
U12C U26G showed a self-cleavage of 0.58.
In the case of U12G U85C, the self-cleavage is reported as 0.4.
Variant U12A U52C has a self-cleavage of 1.06.
U12A U52A gave a self-cleavage of 1.28.
Work on U12A U26C yielded a self-cleavage of 1.22.
With U12G U26A the self-cleavage was 1.3.
Variant U12G U26C has a self-cleavage of 0.57.
U12C A142U showed a self-cleavage of 0.91.
With U12C A142C the self-cleavage was 1.38.
Variant U12C C111U has a self-cleavage of 1.74.
Work on U12C A121G yielded a self-cleavage of 1.74.
With U12C A121U the self-cleavage was 1.11.
U12G A50G gave a self-cleavage of 1.2.
Work on U12G A50U yielded a self-cleavage of 1.16.
For U12G A77G, the self-cleavage was 1.41.
Work on U12A U81A yielded a self-cleavage of 1.89.
In the case of U12G G35A, the self-cleavage is reported as 0.89.
Work on U12C G27A yielded a self-cleavage of 0.87.
In the case of U12C G82A, the self-cleavage is reported as 1.68.
Work on U13A C56A yielded a self-cleavage of 0.05.
In the case of U13A U132C, the self-cleavage is reported as 0.98.
In the case of U13A U132A, the self-cleavage is reported as 0.87.
For U13A U132G, the self-cleavage was 0.6.
U12G U112C gave a self-cleavage of 1.01.
In the case of U12G A136U, the self-cleavage is reported as 0.76.
Work on U12C U134A yielded a self-cleavage of 1.22.
U12C G55A gave a self-cleavage of 0.64.
U12C A140G showed a self-cleavage of 1.2.
Variant U12C A140U has a self-cleavage of 1.24.
Variant U12G U132A has a self-cleavage of 0.66.
Variant U12G U132C has a self-cleavage of 1.02.
With U13A A67G the self-cleavage was 0.22.
For U13A A67U, the self-cleavage was 0.07.
U12C A136G showed a self-cleavage of 1.41.
Variant U13A A59U has a self-cleavage of 0.44.
In the case of U13C A124G, the self-cleavage is reported as 1.04.
For U12C U47G, the self-cleavage was 1.21.
In the case of U12C U47A, the self-cleavage is reported as 0.71.
Work on U12C U73C yielded a self-cleavage of 1.65.
For U12C U73A, the self-cleavage was 1.75.
With U13A C71G the self-cleavage was 0.2.
In the case of U12C A69C, the self-cleavage is reported as 0.09.
In the case of U12A G35C, the self-cleavage is reported as 1.52.
Variant U12A G35A has a self-cleavage of 0.98.
Work on U12C G127C yielded a self-cleavage of 1.84.
For U13A C128U, the self-cleavage was 1.61.
Variant U12C U13A has a self-cleavage of 0.27.
For U12C U13C, the self-cleavage was 1.2.
For U12G G97U, the self-cleavage was 0.07.
Variant U12A U96G has a self-cleavage of 0.38.
U13C A64U showed a self-cleavage of 0.44.
Work on U13C A64C yielded a self-cleavage of 0.45.
U12G U62A showed a self-cleavage of 0.16.
U12G U62C gave a self-cleavage of 0.14.
Variant U12A U73C has a self-cleavage of 1.11.
In the case of U12A U73A, the self-cleavage is reported as 1.47.
For U12A U73G, the self-cleavage was 0.73.
U12C G86A showed a self-cleavage of 0.14.
Variant U12G C19U has a self-cleavage of 1.09.
In the case of U13C A24U, the self-cleavage is reported as 1.11.
For U13C A77G, the self-cleavage was 1.85.
Work on U13C A77U yielded a self-cleavage of 0.87.
With U13C A77C the self-cleavage was 1.15.
Variant U12C G93A has a self-cleavage of 0.08.
In the case of U12C G126A, the self-cleavage is reported as 1.73.
For U12G A43U, the self-cleavage was 0.81.
Work on U12G A43G yielded a self-cleavage of 1.41.
U12G A43C gave a self-cleavage of 1.02.
U12C G35A showed a self-cleavage of 1.62.
Variant U12G G40A has a self-cleavage of 1.41.
Work on U12C G139A yielded a self-cleavage of 0.94.
Work on U13C A107C yielded a self-cleavage of 0.94.
U13C A107G gave a self-cleavage of 1.39.
U12C G75A showed a self-cleavage of 1.46.
Variant U13A C131U has a self-cleavage of 1.15.
For U12C U52A, the self-cleavage was 1.41.
In the case of U12G A65U, the self-cleavage is reported as 0.23.
For U12C G74A, the self-cleavage was 1.
For U12C U87C, the self-cleavage was 0.21.
Work on U12A G127A yielded a self-cleavage of 0.66.
U12C A64C showed a self-cleavage of 0.7.
In the case of U12C A64U, the self-cleavage is reported as 1.53.
U12C U100C showed a self-cleavage of 1.6.
Work on U13A U29A yielded a self-cleavage of 0.42.
Variant U12C U23C has a self-cleavage of 1.34.
Work on U13C A30G yielded a self-cleavage of 0.77.
Variant U12C U29A has a self-cleavage of 1.16.
In the case of U12C U29C, the self-cleavage is reported as 1.44.
For U12G A59U, the self-cleavage was 1.15.
Work on U13A U109C yielded a self-cleavage of 1.17.
Variant U12A U104A has a self-cleavage of 1.19.
In the case of U13A A69C, the self-cleavage is reported as 0.08.
With U13A A69G the self-cleavage was 0.25.
For U13A A69U, the self-cleavage was 0.01.
U13A U108C showed a self-cleavage of 1.02.
U12C G32A showed a self-cleavage of 1.54.
For U13C A136G, the self-cleavage was 1.25.
Work on U12A U13C yielded a self-cleavage of 1.58.
Variant U13A C98G has a self-cleavage of 0.09.
In the case of U12C C98U, the self-cleavage is reported as 0.26.
U12C U20C showed a self-cleavage of 1.24.
Variant U12C A22G has a self-cleavage of 1.64.
Work on U12C A117U yielded a self-cleavage of 1.28.
Work on U12C A124G yielded a self-cleavage of 1.23.
Variant U12G U130A has a self-cleavage of 1.65.
U12C G36A showed a self-cleavage of 1.04.
In the case of U12A U45C, the self-cleavage is reported as 0.82.
Variant U12C U119G has a self-cleavage of 1.5.
U12C U119C showed a self-cleavage of 1.64.
With U13A A121U the self-cleavage was 1.12.
U12G U91A showed a self-cleavage of 0.97.
Variant U12G U104C has a self-cleavage of 1.48.
Variant U12C U112C has a self-cleavage of 1.26.
U12G G114A gave a self-cleavage of 1.07.
U12G G80A gave a self-cleavage of 1.64.
In the case of U12G U119A, the self-cleavage is reported as 1.32.
Variant U12G U119C has a self-cleavage of 1.34.
U12C A141G showed a self-cleavage of 1.5.
In the case of U12C A141U, the self-cleavage is reported as 0.87.
Variant U12C A24G has a self-cleavage of 1.13.
U12A U100A showed a self-cleavage of 0.87.
With U12G C116U the self-cleavage was 0.62.
For U12C G25A, the self-cleavage was 1.18.
Work on U12C C71U yielded a self-cleavage of 0.9.
With U13A U20A the self-cleavage was 1.15.
For U13A G125U, the self-cleavage was 1.03.
Work on U13A G125A yielded a self-cleavage of 0.72.
With U12C C90U the self-cleavage was 0.04.
Variant U13A A64G has a self-cleavage of 0.12.
